Test: soluble fraction after stress (log2 fold change); higher = more stays soluble; pooled small domains, quantitative proteomics
Details: stress: 75 degC
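Note: 20 min heating vs room temperature control held 20 min.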

Sequence | soluble fraction (log2)
HMAEWLFDARKIPDEVMNYLRRIAVQAIEEKHYSPELVADLLGISRSSIYDWLNWYRNGGEEDLDTRKA | -1.53
HMNKSYTVPDVRGMTVEEAQEAEGVKDIFTVHVQGTRKTDEYQPGQIVEQDPIAGRTRKSNFVIEVYVAE | -0.34
HMNGGPHYLRDVRTSLGLSQADLAKAVGTSANMIHYLESGERALTLKWIRRISEALNVSPMRLIN | -2.06
HMPGEATVPSVIGMTKAEAKAKLQASGFELGYSEFVASDKPKGEIVEQDPGAGETAKGGTEVNVKISDGS | 0.0718
HMDRSLYVGDAVGFDSARGLMEIEVKNKFSVVAVSLKKKPSGNFITPLLRMEKKKGEAVTVAPGSGHR | -0.514
HMAEVPDLRNKTQQEAEAELTNHNLKLGNVTEEYSATVEAGRVISQSTSYGTKVLEGSSVDITISKGPEPT | 0.135
HMDRVDGWLHDGKLYLRVVDYKTGKKSFDLAELRYGLGLQMLLYLFTLKEEGQMLFGGHEIVPAGVL | -0.514
HMGNVGEAIEALVKGFQEGNQFQTLLGVTGSGKTFTMANVIAALNKPTLIISHNKTLAAQLYLSLIHIS | 0.277
HMFTGELESRVFELNYVDGLVASAALAGVLTDKGSATPIASRAGGENDMLLVVDRIASYSQIEKIITQLD | 0.0191
HMKSPVKLILRGSIYHIKISAVVNGQRIFVRESSHTTDKREAEQYANKRFAQLVEETEFRTN | -1.18
HMEPDEQAVKALIAEIDKLSKEKLTLKHEKKLKELREIYDDFTEEEKKLVTNYDILVKMEKRMEVLKKQEG | 0.127
HMDKPGMRLNQFIAHSGISSRREADNLIKAGLVQVNGKIIVEMGFRVMPTDIVKFNNETIAS | -2.08
HMQIIETTVGRVLFNEKVPEAAGYINEVLTKKSLRDIIHGILKKTSVPETAAFLDEIKSLGYNFAF | 0.0925
HMSAAPVGPWALSEFLDAVEKDSVERVTFDDAGKALVAVDADGGRHRVEILPSEGPEILAALRKHSVQFA | 0.181
HMEFLDQAFLHETMRKVNQDATINLLKKVYEVPQKFIGRKVTVQYDPEDLSRVYVKDLSFPEPVTVYPV | -0.18
HMVKTANVAYSEFLKLVESDNISDVSIVGRTITGHLDDGTKFSTYTPPNDPSLIDKLTRKNVIIKSAPE | 0.0585
HMNTPNYDVLYRGLADADAGQIMEALQKSNIPFKVDSHSGVLLVPADQVHEARLKLASQGLPRG | -0.119
HMGGGTPEERLATLAAIAERQEMLLERLGPNNPLVSLGQYSRTLSRMVQLAGFKDASQYFNELPLDFQMPE | -0.408
HMAILDTALDVLSMNLKDNYTSFQILRQAAIAGKIAFNLTEKNPLGGVIEVELTGDDLETWIEAATW | 0.183
HMKDDLTWSEGLMPNVVGMGLRDAMFMLENSGLRVNYSGRGKVTRQSPQPGVRIKRGATVAIELRL | -1.89
HMANSDEEVLNKISTKAPTFNELINKIKEFDDTKEINDIWLDVYRYYITDEEYKEIAKKVITGLTYTNQ | -0.386
HMNNTIKFSVDSQNSGKRLDIFLTENIKNYTRSFLKKLIENRQVKLNNNFIISPSERVKFKDQININILQ | -1.8
HMRMLSEGAQRMLRGLAVLEEASADRLLELHQGDYPGFVRSLFALESAGLFQRNGSGTWIRR | -0.91
HMDAIIVPSVLKMKPFEAEEKLSALGLRMKINDTVYIDNMKPGVIVEQSPTAEEDVKTDRVIYVIVNA | -0.327
HMNLYHALDQQGEVYLTIPPRQSGRGKVTLMIDGRVREMDAMTDGDALKTGSKVRVTEILDENALKVEAM | 0.215
HMNTVAGAISDLSFKVRGSEDIEKLNRLKALSIQAKLDVQGQEEAERLISELEAKYGSLGMTVDKVSGKIA | 0.0323

Sequence | soluble fraction (log2)
HMEYPNEIARIFNQIPELNVSAVARTLGINKSLLSSYIYGMKKPSPERTEEIKSAIRKIGQNMLAV | -0.927
HMDNAILQELYDYYKEDPSLSQSELIISMLTRIQEAVGYVSKDVQEEVARLAGVNRGYVAAIIKNLPHL | -1.17
HMEMDPKELGRQVLAKRKEKGWSQEQLGKMAEISRNYVSQIERGEADSISIKIINRLAIALGVSPSDLGE | -0.292
HMPANLTPDYFKAEQWYRSASTNEEKMLALEQMLAVMPKHKGTEHLQADLKRKLSQLKDASAQ | 0.19
HMEKNILPDTSPEKQYEFATSFLKVGDYSTAERAFREFVINNSEHKLAGNAQYWYAETFRIRQ | 0.261
HMQISGSEELEKIVQTVLEKNTDVVEEYKSGKTKVFAFLMGQVMKESRGKANPRLAKDILEKFLA | -0.429
HMAHTGGNTLTREKAVSVRSASDALLFEIHWNETPREDILSTREEKVDGKTYSIITIRTGKGREDHYYLLS | -1.35
HMVGGIAIGQFNVPRGSVKVTAGGRLLQEGLDYTVNYQAGRVQILDESLKNSNVPIEISTESNS | 0.106
HMSLLLTPREASVWASEYLGKKVTSNNIIYLLNYGKIANHSTDLKENLIDKNELKIYYDSTIKSQKH | -0.755
HMEYYIMPVANLHKVVVDGKDMSNLISNNAIAVKANVIDEGQIQIKPGEIIITTPAGVSPEEAVRSP | ≥ 1.04
HMLDLPEISARIMEVFETKDRATISELSKLTGTNINTIKKHLSSLVENNYLIKHGKTRGAWYTKST | -0.126
HMGISSESIKTFIREIVENEDPKAPLSDQTMVELLAERGIDISRRTVAKYRDEMNLPSSSKRKR | 0.87
HMGNASQAARRQRIVDAALELLQDRPYDQIQMRDVAEGAGVALGTLYRYFPSKEQLFAHVLVE | -0.286
HMVSGSPTVDILMQRGLEYQQQENLEAARDAFDRAINLKPDYAEAWNRRAVLFFNEGKYDEAIADLETAIT | 0.136
HMREVPHGEYEVKIEKLELVESKAGDPMVTVWFKVLAGDYKGSMIFMNQVITKGFQIHIMNEFLR | -0.308
HMEKIELKTVIPENLKKKRLDFALSELFPEHSRSRIQSWIKEGSVMVNSKNYRQRDLVDAGDVVEINTEQK | 0.00949
HMKTGNIVMVNLGWKGKYYSIKMFFPQVSKPSRKDVQDQIEKIYPGGKLYTFVVSNYEPGEPMLHA | -1.41
HMDDHKQHLIDFYHSRKRMPTYTEMMALFGYKSKNAVARLVEKMIDAGIVTKDKLGKLLPTTLFDSVPL | -0.00288
HMEFTVFMNSAGGSKLQVVKTVKELTGLGLKEAKAIVDGSPGPVKEGLSKADAEAMLAKLQEAGADVEL | 0.013
HMEEQIEVPVQINGKVRSKLTVAPETDEKQIEALALADPKVQQQLEGKRVLKVIVAQKRLVNIVA | -0.161
HMTKTEFLEALRRALNGNMAAASVEDNLKFYENYFYSEEAKGRSEAAVLSELGDPRILARTLIDAAER | 0.154
HMQSEESTHIGERMLNQALRAMHVEPSAVKEKQWEKLIRDYSVKNKQDILTDIGLGKRQSVMVAHQLLAI | -0.165
HMTTHERHEIIELLRQVGDPMRPKEISEALGKPSGAIRFLLSKLTEEGAIKKTGYGQYTYIP | -0.784
HMLEPEVLDLIGQVKSVHHFSVTQSHQLEKLVRHAHTLGFEIAELKSLLASSPNAKSLLSSLDQKLEPLRM | -1.86
HMSSIRDVVPEGLLSDREKLVLVLAFDRDLDGPDMARTLGISANTVRVLKARALKKLRQAGIQP | -0.954
HMDDENKIEVMINEEKVQLTGKDKYVFVDIFNYIDMDLTRIHGNLVLKLNGENASHNSLLKSGDKIEARWE | -0.746

Sequence | soluble fraction (log2)
HMRMRPNERQKRIIELLSFRRHETIGNFANEFGVSRDTIKRDIITLQEEYPIISERGYEGGISLPDGYYI | -1.08
HMNIVKGDTTANVRVVQQRLYNLGYYTYKVDGIWGTRTKTAVKKFQKDKGLVADGIVGAKTEKALGITLT | -2.35
HMIINLGELLKMLEVNKYQDAMDALDSLIEEGGSLEKIESLHEIRQHTHAMNFREAERLLSILIESEGA | -1.73
HMNEKEAEEAAEAQTEVPDVTGMAPAQAKNMLYQAGLSSEYRGEGETVSRQLPPAGETVNRGTKAVLYL | 0.0203
HMDPLPDEVQEVIDMVDGFKAMDELSEADKADVKAAYDAYNALSAEHKAMVPEHIVTFLNRAYDKLFD | 0.159
HMAIMISINAKGEVAWNDQIISLDDLAQRFNAAGQQAQKPTVQLRADKESRYDMVAQVMSRASEAGLSDIA | -0.83
HMRAAFEHLTIGQTVSGLVKSQARGVSLVEIEGQTVAMRLPQPVAVGDTLRLRFAGHMPQPVFLLDT | -1.59
HMTQEMPAEVKKKADAFNNAMDEENYTEAKAILAELEQNTAPSYPLLLQMQTRYAFETASWE | 0.00338
HMKYGPSTVATLKVARLGEMGAFLDAETGDTSDDILLHKTQQTAPVKVGDEVEVFLYLDPKRRLTASMRV | -0.118
HMKDPSLEHIDALAGKPFQAFPGQDHRAHITAHLNFMSTNMVRNNPSIMAAIQKNILEHISLMAQEQIQL | -1.42
HMFGGIEFGWSQLPDGRVEYIIQLDDQAIAALKNGRSLTSSLPPEVQNADRIRIQYGAGPVEKGLLLQ | -0.206
HMDLFSAVVHHIVGQQISTKAQATIWKRMRDEFGVVDAAAVLGAGVEKLQSFGMTFRKAEYITDFARKIE | -2.61
HMEISNWLEEIGLSRYTETLSEFPLEDLVEFTDDDFKELGVLTPHRKKLLAAIATLNNDASSN | -0.245
HMYRWSEEIFEKLRSDIMAALDLSREQNDEEIYRFIETEVEEYSQNNLLTLKEREQLEHLLFNSL | -1.44
HMVYLPGEEIPLKIIQEGKESGQGVGYLEDGTMVVVENGRRYLNQEVLVQVTKILQTNAGRLIFAVP | -2.6
HMALDLPVKRVKGKEYYYYKVKKGESLYGISKHLGLPLDSIVKSNPSVADGVRKGDMLLFPLEEYT | -0.702
HMSSLTDNFVKALSYYLALSGKSKKEVADGIGIPPTTFSSWSNGKHLPDMDRLQNLATYLGAPVSEFFDFT | 0.238
HMLPDSQLMKEATAWFMRQAADDFSGAERRRLDAWRAQSPAHARAYHQVQALWNAPELQQAAAR | -0.113
HMLSSAAAIDRILAGGTAAMNHRQFDAALTSFNTVIEMRPDFAEGWNKRATLYYLIGEYERSIADVERTLA | 0.183
HMGAQKITIPDFSNQEATQVYAELKNMGLEYTESRMNHPSIASGYVIKTEPTKGSEVKAGTTVTVYVSLG | -0.112
HMTTTAGTAVVQTGNSGKLNLREQAYSNAGILGRYSNGTIVTVLQKGSAWSYVEVQGQKGYMMSKFLRFT | -2.75
HMNSSLFLARQVHALRKKAGLTLQQLSRKSDVSVSTLSKIEKGQLSPTYEKIVSLARGLDVPIAALFHE | -2.45
HMEETLRELAVKISKQVIKTGRNSVLEPMNPYERRIIHAVISEIEGVSSKSVGEDPNRKVVIMSTNP | -0.217
HMPPLVLRGVVMGADGARLAILAQGEAGAALGIGETWKEYTLRSVTDQSATLEHRSGTITLTR | -0.701
